Source: publication PMC2915561 (Biochemistry, 2010)
Numbering of substitutions follows the chain as printed. Names and notes keep the numbering of the source.

B1: LovK (1–163) (domain or fragment, Caulobacter crescentus, UniProt Q9ABE3 1-163, looked up)
chain: MEDYSESRRAGERLAAGHGVDDPFAAAISATRMAMIVADATQPDIPIIFANDAFLRLTGYARDEVIGRNCRFLQGPDTDPKAIQAVRDALAAGEDVAVDLLNYRKDGSPFWNALNMSPVRNDAGQLVYFFGSQVDVTDKKVVELRARDHSDGLQQMVEERTRE
B2: LovK (25–138), isolated LOV core (domain or fragment, Caulobacter crescentus, UniProt Q9ABE3 25-138, looked up)
chain: AAAISATRMAMIVADATQPDIPIIFANDAFLRLTGYARDEVIGRNCRFLQGPDTDPKAIQAVRDALAAGEDVAVDLLNYRKDGSPFWNALNMSPVRNDAGQLVYFFGSQVDVTD
B3: LovK (1–138) (domain or fragment, Caulobacter crescentus, UniProt Q9ABE3 1-138, looked up)
chain: MEDYSESRRAGERLAAGHGVDDPFAAAISATRMAMIVADATQPDIPIIFANDAFLRLTGYARDEVIGRNCRFLQGPDTDPKAIQAVRDALAAGEDVAVDLLNYRKDGSPFWNALNMSPVRNDAGQLVYFFGSQVDVTD
B4: LovK (1–368), full-length Caulobacter crescentus LOV-histidine kinase (enzyme, UniProt Q9ABE3 1-368, looked up)
chain: MEDYSESRRAGERLAAGHGVDDPFAAAISATRMAMIVADATQPDIPIIFANDAFLRLTGYARDEVIGRNCRFLQGPDTDPKAIQAVRDALAAGEDVAVDLLNYRKDGSPFWNALNMSPVRNDAGQLVYFFGSQVDVTDKKVVELRARDHSDGLQQMVEERTRELTEALKQKTALLHEVDHRVKNNLQLISSLLLLQNRRVPDPAVKASLRGMLGRVNAIATVHRRLFQSEDVERFDVSAFIRDMVADLMGSAMRDDIRVELDLERVEIPAAKAAPLALVVNELLTNALRHGFPEGRGGRIFVGLSRLNGDFRIEITDDGVGQDRETRASGFGLTIVQLLCQQLKAKWETTDAEPGTRVVVLLPINGTQ
B5: LovK C70A (1–368), full-length "blind" mutant (enzyme, Caulobacter crescentus, UniProt Q9ABE3 1-368, looked up)
chain: B4 chain with C70A
B6: LovK (25–163) (domain or fragment, Caulobacter crescentus, UniProt Q9ABE3 25-163, looked up)
chain: AAAISATRMAMIVADATQPDIPIIFANDAFLRLTGYARDEVIGRNCRFLQGPDTDPKAIQAVRDALAAGEDVAVDLLNYRKDGSPFWNALNMSPVRNDAGQLVYFFGSQVDVTDKKVVELRARDHSDGLQQMVEERTRE

Legend:
SEC [1] = target: the molecule itself; experiment: SEC
SEC [2] = target: the molecule itself; experiment: SEC; remark: listed apart in the source
SAXS = target: the molecule itself; experiment: SAXS

Protein	stoichiometry N (SEC [1])	also measured
B1	2	
B2	2	
B3	2	
B4		stoichiometry N (SEC [2]): 2
B5		stoichiometry N (SAXS): 2
B6	2	
